Tested on: MS2 coat protein
Assay: apparent KD of MS2 coat protein; designed switch direction (-1 OFF switch, 1 ON switch): -1; higher = weaker reporter binding
Summary of the method: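 Each step of the titration lasted 0.8–1.5 h at the lowest concentration and 10–20 min at the highest. The protein, SNAP-549-labelled MS2 coat protein, went from 0.7 or 1.5 nM doubling to 3 µM over RNA switches transcribed on Illumina chips by stalled E. coli RNA polymerase. Normalised cluster fluorescence was curve-fitted, and the per-design median over clusters is given as apparent KD.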

[1] = input ligand: microRNA oligo, concentration not stated
[2] = Eterna round: R95, input ligand: FMN 200 uM
[3] = Eterna round: R95, input ligand: microRNA oligo, concentration not stated
[4] = Eterna round: R95, input ligand: none

| Sequence | apparent KD of MS2 coat protein (input ligand: FMN 200 uM) | apparent KD of MS2 coat protein (input ligand: none) | apparent KD of MS2 coat protein [1] | apparent KD of MS2 coat protein [2] | apparent KD of MS2 coat protein [3] | apparent KD of MS2 coat protein [4] |
| --- | --- | --- | --- | --- | --- | --- |
| UGUCUUGCAGGAUAUACAUGAGGAUCACCCAUGUAUAUUGAUGAGGGAGAUCUACUAGGUAGAAGGGUAAGAGA [Eternabot (L2) Solution 59] (Eterna round: R97, puzzle: Exclusion 3) | 0.045 µM | 0.0178 µM | – | – | – | – |
| UGUGCUUCAGGAUAUACGUGACGACCGUGAGGUCGAAGGUUACAUGAGGAUCACCCAUGUAGAAGGGAAGUACU [Mat - Exclusion 2 - JL Mod - D29] (Eterna round: R97, puzzle: Exclusion 2) | 0.0668 µM | 0.033 µM | – | – | – | – |
| UGUGUGUCAGGAUAUGUGUGUGUGUGUGAAAGCGCGCGCGCGCAGAAGGGACAUGAGGAUCACCCAUGUGCGCG [-35.3, -34.3 kcal, A 20%, 6bis-6] (Eterna round: R97, puzzle: Exclusion 4) | 0.484 µM | 0.22 µM | – | – | – | – |
| UGUUAGAUGGUAGGAUAUCCAUAUCGAGUGACCCUUUCAUAACAUGAGGAUCACCCAUGUCGGUGGGAGAAGGGCCGUAUGGUG [salish99_ExNG02_R04_031] (Eterna round: R96, puzzle: Exclusion NG 2) | 0.018 µM | 0.0227 µM | 0.0158 µM | – | – | – |
| UGUUGUCGCGUAGGAUAUGAGGAUCACCCAUAUAAAGGAUAUGAAAAGAAGGUUCUGAGGAUUACCCAGAAGGACGGGACAACU [pwkr exNG2 2xF5 2xFMN.17] (Eterna round: R96, puzzle: Exclusion NG 2) | 0.207 µM | 0.0487 µM | 0.035 µM | – | – | – |
| UGUUGUUACGCAGGAUAUGAGGAUCACCCAUAGAAGGAUAACGAAAGUGAAGGUCUGAGGAUUACCCAGAAGGGCGGGUUAACA [pwkr exNG2 2xF5 2xFMN.2] (Eterna round: R96, puzzle: Exclusion NG 2) | 0.294 µM | 0.092 µM | 0.0742 µM | – | – | – |
| UGUUGUUACGCAGGAUAUUGUCAACAGGCAGUAGGAUAUCCGAAAGGAGAAGGACCGCCAACAGGCGAGAAGGGCGGGUUAACA [pwkr exNG2 2xF7 2xFMN.7] (Eterna round: R96, puzzle: Exclusion NG 2) | 0.369 µM | 0.323 µM | 0.167 µM | – | – | – |
| UGUUGUUACGUAGGAUAUCCACCAACAGGUGGAAGGAUAUGGAAACAGAAGGUUCGCCAACAGGCGGAGAAGGACGGGUUAACA [pwkr exNG2 2xF7 2xFMN.22] (Eterna round: R96, puzzle: Exclusion NG 2) | 0.0425 µM | 0.0323 µM | 0.0115 µM | – | – | – |
| UUAAAUCAUGUAGGAUAUGCGUGGCGAAGCUAUGCAGAAGGACAUGAGGAUCACCCAUGUUCUAGCGUCUGCGUACAGAUGCUA [Mat - Exclusion NG 1 - Mod of JL - D76] (Eterna round: R96, puzzle: Exclusion NG 1) | 0.359 µM | 0.0383 µM | 0.0269 µM | – | – | – |
| UUAAAUCAUGUAGGAUAUGCGUGGGAAAACUAUGCAGAAGGACAUGAGGAUCACCCAUGUGCUUCCGUCUGAGAACAGACGGUA [Mat - Exclusion NG 1 - Mod of JL - D15] (Eterna round: R96, puzzle: Exclusion NG 1) | 0.226 µM | 0.0878 µM | 0.0761 µM | – | – | – |
| UUAAGUUCAGGAUAUGAUGAAUUAAACAUGAGGAUCACCCAUGUAGAUCCUGAAUUAACAUCAGAAGGGAAUAUUU [JL-ex5-4.52 Brourd mod] (Eterna round: R97, puzzle: Exclusion 5) | 0.0244 µM | 0.0135 µM | – | – | – | – |
| UUAAUAAUGUAAGGAUAUGCGUGGCGAAGCUAUGCAGAAGGUACAUGAGGAUCACCCAUGUGGUCCGUCUGCGUACAGAUGGAA [JL Eng1 1.08 mod] (Eterna round: R96, puzzle: Exclusion NG 1) | 0.756 µM | 0.365 µM | 0.319 µM | – | – | – |
| UUAAUACAUGAGGAUCACCCAUGUCAGGAUAUCCGUAUUUCUUAUAUAUAUUUCUAUCGGAGAAGGGACACAUU [lam1] (Eterna round: R97, puzzle: Exclusion 1) | 0.0509 µM | 0.0454 µM | – | – | – | – |
| UUAAUGUCAGGAUAUGCUUAAUAUAUUUUAUUAUAAUAUAUACAUGAGGAUCACCCAUGUAGAAGGGACAUUAU [LRO-Excl2-04-Fireball XL5] (Eterna round: R97, puzzle: Exclusion 2) | 0.0264 µM | 0.0391 µM | – | – | – | – |
| UUAAUUAAUAAUUAAGAUCAUUACAUGAGGAUCACCCAUGUCGAGGAUAUCAGCUCGAUUAGAGCUGAGAAGGCGACAAAUUAU [ExNG3/13-B1] (Eterna round: R96, puzzle: Exclusion NG 3) | 1.06 µM | 0.579 µM | 0.644 µM | – | – | – |
| UUAAUUAGCAGACUAAUACCUCACAUGAGGAUCACCCAUGUGCAGGAUAUCAGCUCGUGUAGAGCUGAGAAGGGCACUGUCUGC [ExNG3/12-A3] (Eterna round: R96, puzzle: Exclusion NG 3) | 0.017 µM | 0.0108 µM | 0.0102 µM | – | – | – |
| UUAAUUAGCAGACUAAUACCUCACAUGAGGAUCACCCAUGUGCAGGAUAUCAGCUCGUUUAGAGCUGAGAAGGGCACUGUCUGC [ExNG3/12-A2] (Eterna round: R96, puzzle: Exclusion NG 3) | 0.0179 µM | 0.0113 µM | 0.00872 µM | – | – | – |
| UUAAUUUAAGGGAUAGAUCAUUACAUGAGGAUCACCCAUGUUGAGGAUAUCAGCUCGAUUAGAGCUGAGAAGGCAACAAUAGGG [ExNG3/14-A1] (Eterna round: R96, puzzle: Exclusion NG 3) | 0.046 µM | 0.0638 µM | 0.0471 µM | – | – | – |
| UUACAAUGUCGCUUACAAGCUUUUUGCUCGUCUUAUAUUACAUGAGGAUCACCCAUGUAGAUCAUGUGGCGUGACCU [JL ViennaUCT Maridi mod 9] (puzzle: Sensor v3, turn-off variant 2) | – | – | – | 0.165 µM | 0.0233 µM | 0.208 µM |
| UUACCAUGCCGCCUAAUAGCUUUUUGCUCGUCUUAUAUUACAUGAGGAUCACCCAUGUAGAUCAUGUGGCGUGACCU [JL ViennaUCT Maridi mod 2] (puzzle: Sensor v3, turn-off variant 2) | – | – | – | 0.126 µM | 0.0396 µM | 0.121 µM |
| UUACGGUAGAUCGUGGCUUUUUGCUCGUCUUGUGCUACAACAUGAGGAUCACCCAUGUAGAGGUGAUCUAUUGUAUU [Grok-var2-20 mod JAL] (puzzle: Sensor v3, turn-off variant 2) | – | – | – | 0.0519 µM | 0.0178 µM | 0.0745 µM |
| UUACUAUGCCGCCUAAUAGCUUUUUGCUCGUCUUAUAUUACAUGAGGAUCACCCAUGUAGAUCAUGUGGCGUGACCU [JL ViennaUCT Maridi mod 3] (puzzle: Sensor v3, turn-off variant 2) | – | – | – | 0.216 µM | 0.042 µM | 0.206 µM |
| UUAGAUAGGUCAGGAUAUCGAUGAUUGAAUAGUAUGAUUUACAUGAGGAUCACCCAUGUUUUGUACGAGAAGGGACGUUAGAUU [JR_ExcNG2_Sub020] (Eterna round: R96, puzzle: Exclusion NG 2) | 0.0269 µM | 0.0285 µM | 0.0226 µM | – | – | – |
| UUAGAUAGGUCAGGAUAUCGAUGAUUGAAUUGUAUGAUUUACAUGAGGAUCACCCAUGUUUUGUACGAGAAGGGACGUUAGAUU [JR_ExcNG2_Sub018] (Eterna round: R96, puzzle: Exclusion NG 2) | 0.0267 µM | 0.0372 µM | 0.0176 µM | – | – | – |
| UUAGCGCGAGGAUAUGCGGUUUGUGCUUUGGGCCCUGGCGUACAUGAGGAUCACCCAUGUAGAAGGCGUGUUGU [Apr-15 SS2-50] (puzzle: Exclusion 2) | – | – | – | – | 0.0207 µM | – |
| UUAGGCGUCAUUGCUCGUCUUUUAUGGAGAUGACUGUUAACAUGAGGAUCACCCAUGUGUGUGGGAGCUUUGCAGUU [JR_SV3TOV2_Sub023] (puzzle: Sensor v3, turn-off variant 2) | – | – | – | 0.213 µM | 0.568 µM | 0.27 µM |
| UUAGUGUUAGGAUAUAAUCAUAUAAGCUGUAAGGUGUAUGAUUAGAAGGGACAUGAGGAUCACCCAUGUCGUGA [Eternabot (L1) Solution 94] (Eterna round: R97, puzzle: Exclusion 4) | 0.0231 µM | 0.0201 µM | – | – | – | – |
| UUAUAAAGUGUGAGGAUAUGCUGGUCCUUGGAUCAGCAGAAGGCACAUGAGGAUCACCCAUGUAAUAUAUUUUU [JL bmx4 3.08] (puzzle: Brourd's mod of Exclusion 4) | – | – | – | – | 0.0682 µM | – |
